The source of these data is article PMC10308189 (Bio-protocol, 2023).

A word on the stoichiometry N: it is the number of molecules, sites or subunits per partner or assembly.

The series deals with the molecule itself. Nature of the series: SEC. For orientation: Size exclusion chromatography separates by hydrodynamic size, large species first.

B1: human amphiphysin 1 N-BAR domain (1-247) (domain or fragment, UniProt P49418 1-247, looked up)
chain: MADIKTGIFAKNVQKRLNRAQEKVLQKLGKADETKDEQFEEYVQNFKRQEAEGTRLQRELRGYLAAIKGMQEASMKLTESLHEVYEPDWYGREDVKMVGEKCDVLWEDFHQKLVDGSLLTLDTYLGQFPDIKNRIAKRSRKLVDYDSARHHLEALQSSKRKDESRISKAEEEFQKAQKVFEEFNVDLQEELPSLWSRRVGFYVNTFKNVSSLEAKFHKEIAVLCHKLYEVMTKLGDQHADKAFTIQG
As to B1, the “stoichiometry N” value came to 2.
